Values quoted from earlier work as cited in paper PMC3511906.
Read-outs that look alike come from different tables or passages of the source.

Columns and labels:
[1] = molecular target: CXCR1 (Mus musculus) (UniProt Q810W6)
[2] = molecular target: CXCR1 (Mus musculus) (UniProt Q810W6); remark: listed apart in the source
[3] = molecular target: CXCR2 (Mus musculus) (UniProt P35343)
Chain of CXCR2 (Mus musculus) (P35343 whole entry): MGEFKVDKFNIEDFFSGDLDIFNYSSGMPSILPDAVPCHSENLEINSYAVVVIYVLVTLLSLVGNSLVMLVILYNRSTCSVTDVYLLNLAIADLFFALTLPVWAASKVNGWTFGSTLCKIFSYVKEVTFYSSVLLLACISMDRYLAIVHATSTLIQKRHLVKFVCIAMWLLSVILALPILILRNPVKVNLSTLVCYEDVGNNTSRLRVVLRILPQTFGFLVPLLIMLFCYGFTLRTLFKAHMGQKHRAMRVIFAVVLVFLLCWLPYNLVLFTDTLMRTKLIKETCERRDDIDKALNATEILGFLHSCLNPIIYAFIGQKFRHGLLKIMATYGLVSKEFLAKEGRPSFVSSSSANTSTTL

Chain of MIP-2 (P10889 28-100): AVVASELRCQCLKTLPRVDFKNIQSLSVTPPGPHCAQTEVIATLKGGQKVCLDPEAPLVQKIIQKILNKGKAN
Chain of CXCR1 (Mus musculus) (Q810W6 whole entry): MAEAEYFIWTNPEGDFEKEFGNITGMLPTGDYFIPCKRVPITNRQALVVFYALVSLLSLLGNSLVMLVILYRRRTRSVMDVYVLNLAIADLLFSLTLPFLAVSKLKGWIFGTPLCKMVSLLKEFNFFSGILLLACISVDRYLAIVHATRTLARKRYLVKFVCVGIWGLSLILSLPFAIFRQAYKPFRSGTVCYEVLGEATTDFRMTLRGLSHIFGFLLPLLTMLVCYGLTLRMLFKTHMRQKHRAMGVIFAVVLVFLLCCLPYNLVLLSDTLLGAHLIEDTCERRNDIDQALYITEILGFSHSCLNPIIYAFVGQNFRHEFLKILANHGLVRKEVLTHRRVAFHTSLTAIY
Chain of CXCL8 (P10145 28-99): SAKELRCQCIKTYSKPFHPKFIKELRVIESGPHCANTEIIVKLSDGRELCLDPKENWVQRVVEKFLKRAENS

Substance | Kd [1] | Kd [2] | Kd [3]
CXCL8 (from UniProt P10145) | 10 nM |  | 
MIP-2 (from UniProt P10889) |  | 643 nM | 3.5 nM
